{"source": "paper PMC9739371", "about": "“Deciphering the Binding of the Nuclear Localization Sequence of Myc Protein to the Nuclear Carrier Importin α3” (International Journal of Molecular Sciences, 2022)", "origin": "cited, not measured here", "biological_target": "NLS-Myc (GFP fusion) NLS (Homo sapiens) (UniProt P01106)", "sequence (P01106 whole entry, looked up, the tested form may be a part)": "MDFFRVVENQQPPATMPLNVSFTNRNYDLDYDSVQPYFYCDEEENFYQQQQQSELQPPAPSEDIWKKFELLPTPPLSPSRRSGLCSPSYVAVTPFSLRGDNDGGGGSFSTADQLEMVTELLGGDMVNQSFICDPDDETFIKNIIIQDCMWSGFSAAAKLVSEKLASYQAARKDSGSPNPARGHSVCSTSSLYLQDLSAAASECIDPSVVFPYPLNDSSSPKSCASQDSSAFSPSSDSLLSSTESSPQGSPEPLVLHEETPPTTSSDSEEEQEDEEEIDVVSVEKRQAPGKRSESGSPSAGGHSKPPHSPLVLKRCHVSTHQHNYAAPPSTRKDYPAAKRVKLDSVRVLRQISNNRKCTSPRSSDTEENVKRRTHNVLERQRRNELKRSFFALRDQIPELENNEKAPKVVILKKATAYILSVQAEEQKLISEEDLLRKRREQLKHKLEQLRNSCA"}
{"substance": "yeast ΔImpα ΔIBB (from UniProt Q02821)", "values": [{"measurement": "Kd", "value": 6, "unit": "nM"}]}
